Target: T1, Human APOBEC-2 (APO2) containing residues 41-224 (human), Q9Y235
T1 chain: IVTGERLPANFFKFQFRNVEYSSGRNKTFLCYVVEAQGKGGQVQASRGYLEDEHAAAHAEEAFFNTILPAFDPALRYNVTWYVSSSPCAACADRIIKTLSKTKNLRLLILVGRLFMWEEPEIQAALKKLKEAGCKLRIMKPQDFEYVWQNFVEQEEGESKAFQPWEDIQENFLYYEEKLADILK
Assay: X-ray crystal structure, tetramer interface
Settings: remark: other sources report otherwise

total buried area within the tetramer interface: 1740 Å^2
B1: Human APOBEC-2 (APO2) containing residues 41-224, Q9Y235 41-224 (enzyme, UniProt Q9Y235 41-224, looked up)
chain: IVTGERLPANFFKFQFRNVEYSSGRNKTFLCYVVEAQGKGGQVQASRGYLEDEHAAAHAEEAFFNTILPAFDPALRYNVTWYVSSSPCAACADRIIKTLSKTKNLRLLILVGRLFMWEEPEIQAALKKLKEAGCKLRIMKPQDFEYVWQNFVEQEEGESKAFQPWEDIQENFLYYEEKLADILK
